2 molecules from patent publication US20230381350A1 (PRECIRIX N V, published 2023) can be followed below.

The term Kd denotes the free concentration of one partner at which half of the binding sites on the other are occupied at equilibrium, for simple one-to-one binding. In general, koff refers to the rate constant with which the complex falls apart. What is called kon is the second-order rate constant of association.

Assay [1] concerns the target T1, murine FAP recombinant protein (murine, UniProt P97321 26-761).
T1 construct: The protein was biotinylated for bio-layer interferometry; also called extracellular domain of murine FAP with N-terminal His6-tag
T1 sequence: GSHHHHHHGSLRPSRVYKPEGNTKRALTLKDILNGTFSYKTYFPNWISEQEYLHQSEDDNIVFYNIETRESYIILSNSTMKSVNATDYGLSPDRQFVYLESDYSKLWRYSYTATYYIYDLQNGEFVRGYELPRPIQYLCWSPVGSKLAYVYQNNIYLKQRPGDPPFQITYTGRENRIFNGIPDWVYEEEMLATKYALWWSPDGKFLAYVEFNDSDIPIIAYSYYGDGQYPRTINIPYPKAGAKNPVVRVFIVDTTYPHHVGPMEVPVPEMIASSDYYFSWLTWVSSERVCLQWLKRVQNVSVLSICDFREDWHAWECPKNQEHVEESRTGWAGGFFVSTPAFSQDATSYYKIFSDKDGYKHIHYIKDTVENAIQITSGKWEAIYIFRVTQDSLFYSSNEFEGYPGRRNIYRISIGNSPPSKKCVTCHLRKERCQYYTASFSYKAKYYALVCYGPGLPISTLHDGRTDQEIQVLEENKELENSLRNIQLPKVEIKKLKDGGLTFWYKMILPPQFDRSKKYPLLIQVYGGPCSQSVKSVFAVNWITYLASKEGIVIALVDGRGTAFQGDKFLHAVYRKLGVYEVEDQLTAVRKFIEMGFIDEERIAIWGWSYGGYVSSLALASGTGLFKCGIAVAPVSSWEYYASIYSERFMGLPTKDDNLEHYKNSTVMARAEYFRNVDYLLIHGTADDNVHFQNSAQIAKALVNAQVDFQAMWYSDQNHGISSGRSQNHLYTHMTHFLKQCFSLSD
Kind of assay: bio-layer interferometry (Octet RED96), biotinylated murine FAP on streptavidin sensor, kinetic titration, 25 °C. The protocol:
(§1) The kinetic parameters of antigen binding by purified VHHs were determined via bio-layer interferometry with an Octet RED96 instrument (ForteBio). The assay was performed at 25° C. with shaking at 1000 rpm. Streptavidin coated SA sensors were equilibrated in assay buffer (HBS supplemented with 0.5% BSA, 0.1% Tween), before loading for 5 min with the biotinylated FAP recombinant protein at a concentration of 5 μg/ml. His₆-tagged VHHs were analyzed in a threefold serial dilution from 30 nM to 0.4 nM in assay buffer (except for VHH B3 binding murine FAP recombinant protein, for which a fivefold serial dilution from 1000 nM to 1.6 nM was employed). First the baseline was measured for 180 s in assay buffer, followed by 5 subsequent association phases of 180 s with the VHH preparations in increasing order of concentration, with 75 s intermediate dissociation phases in assay buffer in between, and a final dissociation phase in assay buffer of 30 min. In every assay a reference sensor loaded with FAP recombinant protein was included that was incubated in assay buffer during the association phases.
(§2) Binding curves were exported and analyzed using the BIAevaluation analysis software (GE Healthcare). First the y-axes of the different curves were aligned to the median of the last 5 s of the baseline measurement. Subsequently, the sensorgram of the reference sensor was subtracted from all other sensorgrams. The resulting binding curve was fitted using a general fit with the ‘kinetic titration with drift’ binding model (1:1 (antigen:analyte) model; Karlsson, R. et al (2006), Analyzing a kinetic titration series using affinity biosensors. Analytical Biochemistry 349: 136-147), with Rmax fitted global, RI local and drift set to 0.
(§3) Table 7 gives an overview of the kinetic parameters of antigen binding for His₆-tagged VHHs B1, B2, B3 and B4 (SEQ ID NO: 21-24), as determined by bio-layer interferometry with biotinylated human or murine FAP recombinant protein that was loaded on the sensor.
For orientation: Biolayer interferometry detects binding as a change in optical thickness at a sensor tip.

The target in assay [2] is T2, human FAP recombinant protein (human, UniProt Q12884 26-760).
T2 construct: The protein was biotinylated with sulfo-NHS-SS-biotin for bio-layer interferometry; also called extracellular domain of human FAP with N-terminal His6-tag
T2 sequence: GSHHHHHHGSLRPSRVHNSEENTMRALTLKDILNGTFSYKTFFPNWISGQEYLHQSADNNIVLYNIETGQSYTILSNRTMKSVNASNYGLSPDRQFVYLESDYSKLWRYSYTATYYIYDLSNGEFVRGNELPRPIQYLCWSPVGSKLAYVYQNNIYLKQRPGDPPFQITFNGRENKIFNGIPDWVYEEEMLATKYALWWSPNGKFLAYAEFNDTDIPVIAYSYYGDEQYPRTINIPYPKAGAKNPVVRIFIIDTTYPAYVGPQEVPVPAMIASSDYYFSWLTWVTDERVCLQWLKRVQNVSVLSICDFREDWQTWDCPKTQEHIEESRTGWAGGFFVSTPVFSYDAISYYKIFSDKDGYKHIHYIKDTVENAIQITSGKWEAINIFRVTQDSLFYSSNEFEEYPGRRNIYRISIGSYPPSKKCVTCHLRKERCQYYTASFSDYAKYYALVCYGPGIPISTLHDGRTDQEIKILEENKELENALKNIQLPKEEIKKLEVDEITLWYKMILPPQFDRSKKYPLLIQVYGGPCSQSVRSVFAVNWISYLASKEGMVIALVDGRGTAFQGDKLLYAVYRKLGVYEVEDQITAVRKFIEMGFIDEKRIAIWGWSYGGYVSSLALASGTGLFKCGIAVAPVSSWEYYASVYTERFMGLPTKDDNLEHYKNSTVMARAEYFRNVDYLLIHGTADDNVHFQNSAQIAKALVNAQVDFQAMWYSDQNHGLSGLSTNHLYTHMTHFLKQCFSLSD
Kind of assay: bio-layer interferometry (Octet RED96), biotinylated human FAP on streptavidin sensor, kinetic titration, 25 °C. As for the experimental part: as §1, §2, §3

The target in assay [3] is T2, human FAP recombinant protein. Kind of assay: bio-layer interferometry, biotinylated human FAP on sensor. As for the experimental part: as §1, with “In every assay a reference sensor loaded with FAP recombinant protein was included that was incubated in assay buffer during the association phases.” left out
Binding curves were exported and analyzed using the BIAevaluation analysis software (GE Healthcare). […]
as §3

Assay [4] concerns the target T3, murine FAP expressed on cells (murine, UniProt P97321 1-761).
T3 construct: also called murine FAP cell surface protein
T3 sequence: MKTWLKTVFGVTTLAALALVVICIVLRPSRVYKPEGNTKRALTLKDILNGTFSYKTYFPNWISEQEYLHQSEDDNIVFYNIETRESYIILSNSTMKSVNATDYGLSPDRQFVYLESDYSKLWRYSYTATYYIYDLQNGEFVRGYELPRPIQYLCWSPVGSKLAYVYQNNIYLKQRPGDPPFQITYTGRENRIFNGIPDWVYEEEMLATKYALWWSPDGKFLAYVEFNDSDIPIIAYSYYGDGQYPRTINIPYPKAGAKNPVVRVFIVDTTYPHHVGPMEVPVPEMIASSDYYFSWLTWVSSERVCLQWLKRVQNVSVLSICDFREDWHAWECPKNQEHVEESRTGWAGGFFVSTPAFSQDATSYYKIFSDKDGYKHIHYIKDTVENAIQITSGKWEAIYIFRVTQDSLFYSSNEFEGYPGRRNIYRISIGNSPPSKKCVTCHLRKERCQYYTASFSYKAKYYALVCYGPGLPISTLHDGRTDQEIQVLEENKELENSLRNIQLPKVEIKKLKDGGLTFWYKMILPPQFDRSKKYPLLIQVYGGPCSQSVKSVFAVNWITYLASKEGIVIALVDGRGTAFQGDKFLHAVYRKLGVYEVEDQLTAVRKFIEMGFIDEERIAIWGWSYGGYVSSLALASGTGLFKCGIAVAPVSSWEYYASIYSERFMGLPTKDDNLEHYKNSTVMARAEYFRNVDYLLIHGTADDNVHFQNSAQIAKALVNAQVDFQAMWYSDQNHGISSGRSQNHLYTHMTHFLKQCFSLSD
Kind of assay: flow cytometry on murine FAP-transfected HEK293 cells, VHH-containing bacterial extract, anti-HA and PE-conjugated secondary detection, Δmfi against cells without VHH. The protocol: The cell binding was tested by flow cytometry experiments. Per test condition 1×10⁵ to 2×10⁵ cells, washed in PBS, 0.5% BSA, were pelleted in the well of a 96-well U-bottom plate. The cell pellets were resuspended and incubated with the VHH-containing bacterial freeze-thaw extracts (diluted in PBS, 0.5% BSA). Binding of HA-His₆-tagged VHHs was detected by using mouse anti-HA.11 epitope tag (clone 16B12, Biolegend) as the primary detection antibody and PE-conjugated rat anti-mouse IgG1 (clone A85-1, BD Pharmingen) as the secondary detection antibody, with washing with PBS, 0.5% BSA in between, and finally resuspended in PBS, 0.5% BSA.
Flow cytometry was performed on a FACS Canto II (BD Biosciences). Data were analyzed using FlowJo software. Based on the forward scatter-side scatter plot a single cell gate was drawn. The median fluorescence intensity was determined on a histogram for the phycoerythrin signal of the single cells. The difference in median fluorescence intensity (A mfi) was calculated relative to a test condition without incubation of VHHs (cells+primary Ab+secondary Ab), and are shown in FIG. 3.

For assay [5], the target named is T1, murine FAP recombinant protein. Kind of assay: ELISA on coated recombinant protein, VHH-containing bacterial extract, anti-HA detection, signal-to-background ratio. As for the experimental part: (§4) The day before measurement, 0.1 μg recombinant protein at a concentration of 1 μg/mL in 100 mM NaHCO₃, pH 8.2 was coated in a 96-well ELISA plate (Nunc MaxiSorp). Per VHH clone also a blank coated well was foreseen (only buffer). The wells were overcoated with protein-free T20 (PBS) blocking buffer (Pierce). After washing with PBS, pH7.4, 0.05% Tween, VHH-containing bacterial freeze-thaw extract was added to every well. Binding of HA-His₆-tagged VHHs was detected by using mouse anti-HA.11 epitope tag (clone 16B12, Biolegend) as the primary Ab and goat anti-mouse IgG (whole molecule) alkaline phosphatase conjugate (Sigma-Aldrich) as the secondary Ab, with thorough washing with PBS, pH 7.4, 0.05% Tween in between. Signals were developed using phosphatase substrate (Sigma-Aldrich) in AP blot buffer (100 mM NaCl, 50 mM MgCl₂, 100 mM Tris, pH 9.5). The absorbance was determined at 405 nm using an absorbance microplate reader (Molecular Devices). Per clone the ratio was determined between the absorbance in the antigen-coated well versus the well without antigen.
On the technique in general: ELISA stands for enzyme-linked immunosorbent assay.

Assay [6] addresses T4, human DPP IV recombinant protein (human, UniProt P27487 29-766).
T4 construct: extracellular domain; Bought protein; also called Dipeptidyl amino-peptidase IV
The assay is described as above. The protocol:
as §4

Assay [7] has as its target T2, human FAP recombinant protein. Kind of assay: ELISA, coated human FAP recombinant protein, HA-His6-tagged VHH extract, anti-HA detection. The protocol: as §4
In assay [8] the target is T4, human DPP IV recombinant protein. Kind of assay: ELISA, coated human DPP IV, HA-His6-tagged VHH extract, anti-HA detection. As for the experimental part: as §4

Bounds are passed on as bounds.

T4 sequence (P27487 29-766): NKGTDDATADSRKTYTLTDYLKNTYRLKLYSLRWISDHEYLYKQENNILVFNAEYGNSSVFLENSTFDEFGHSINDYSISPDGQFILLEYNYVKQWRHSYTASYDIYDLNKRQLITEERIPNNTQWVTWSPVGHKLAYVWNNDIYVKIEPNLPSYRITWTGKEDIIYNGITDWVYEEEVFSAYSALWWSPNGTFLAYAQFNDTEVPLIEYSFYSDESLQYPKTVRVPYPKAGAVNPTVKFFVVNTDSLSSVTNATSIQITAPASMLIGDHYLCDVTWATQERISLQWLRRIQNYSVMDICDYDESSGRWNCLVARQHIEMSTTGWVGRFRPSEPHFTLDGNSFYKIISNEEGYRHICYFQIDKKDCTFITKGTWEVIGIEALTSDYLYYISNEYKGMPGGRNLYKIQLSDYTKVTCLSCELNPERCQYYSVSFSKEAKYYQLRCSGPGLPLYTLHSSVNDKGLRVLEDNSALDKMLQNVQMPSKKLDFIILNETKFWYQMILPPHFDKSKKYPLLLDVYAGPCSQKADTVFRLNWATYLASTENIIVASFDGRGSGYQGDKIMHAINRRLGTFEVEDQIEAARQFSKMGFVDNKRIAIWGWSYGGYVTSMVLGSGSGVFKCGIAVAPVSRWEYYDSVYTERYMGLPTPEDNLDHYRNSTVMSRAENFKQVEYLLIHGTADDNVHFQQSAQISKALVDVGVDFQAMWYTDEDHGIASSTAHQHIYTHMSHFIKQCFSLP

B1: His6-tagged VHH B1 (VHH)
VHH: DVQLVESGGGLVQPGGSLRLSCVASGRLSSSNSMAWYRQVPGKRRELVAGITGGGETNYADFVGGRFTISRDNAKNGLYLQLNGLKPEDTAAYYCNFWPPLINYWGQGTQVTVSS
notes: Purified, unlabelled; used in bio-layer interferometry; also called B1 with His6-tag
In the case of B1, in assay [1], the dissociation constant Kd was 0.742 nM, the koff was 0.0014 s⁻¹ and the kon was determined as 1.9e+06 M⁻¹ s⁻¹. Moreover, in assay [2], the Kd was found to be 0.0378 nM, the koff was found to be 2.7e-05 s⁻¹ and the kon is 700000 M⁻¹ s⁻¹. For the same molecule, the Kd in assay [3] was under 0.05 nM.

B2: HA-His6-tagged VHH B3 (VHH)
VHH: QVQLQESGGGLVQAGGSLRLSCAVSGRLFSTNAMGWYRQAPGKQRELVAGITGGDRSNYADSVKGRFTISRDNGKNTLYLQMNSLKPEDTAVYYCNFYPPIVGDYWGQGTQVTVSS
notes: also called B3 with HA-His6-tag
As to B2, the binding result in assay [4], in assay [5] and in assay [6] was “no binding” each time. In addition, the signal-to-background ratio is over 25 in assay [7] and about 1 in assay [8].
